# Results reported in patent US10925971B2, “Methods of treating PRLR positive breast cancer” (Regeneron Pharmaceuticals, Inc., priority 2016, dated 2021).
# Target: T1, hPRLR-mmH (SEQ ID NO:406) (Homo sapiens, UniProt P16471)
# T1 construct: this experiment was conducted with a truncated form of PRLR (i.e., hPRLR-mmH)
# Assay: Epitope mapping by hydrogen/deuterium exchange with MALDI-TOF MS
# Assay type: binding
# Experimental: Experiments were conducted to determine the amino acid residues of PRLR with which H1H6958N2 interacts. For this purpose hydrogen/deuterium (H/D) exchange epitope mapping was carried out. A general description of the H/D exchange method is set forth in e.g., Ehring (1999) Analytical Biochemistry 267(2):252-259; and Engen and Smith (2001) Anal. Chem. 73:256A-265A.
# To map the binding epitope(s) of antibody H1H6958N2 on hPRLR via H/D exchange, a construct comprising a recombinant extracellular domain of hPRLR with a C-terminal myc-myc-hexahistidine tag (hPRLR-mmH; SEQ ID NO: SEQ ID NO:406) was buffer exchanged to PBS with a final concentration of 8 mg/mL, and antibody H1H6958N2 was covalently attached to N-hydroxysuccinimide (NHS) agarose beads (GE Lifescience)
# In the ‘on-solution/off-beads’ (on-exchange in solution followed by off-exchange on beads) experiment, the hPRLR was deuterated for 5 min or 10 min in PBS buffer prepared with D2O, and then bound to H1H6958N2 beads through a 2 min incubation. The hPRLR-bound beads were washed with PBS aqueous buffer (prepared with H2O) and incubated PBS buffer for half of the on-exchange time. After the off-exchange, the bound hPRLR was eluted from beads with an ice-cold low pH TFA solution. The eluted hPRLR was then digested with immobilized pepsin (Thermo Scientific) for 5 min. The resulting peptides were desalted using ZipTip® chromatographic pipette tips and immediately analyzed by UltrafleXtreme matrix assisted laser desorption ionization time of flight (MALDI-TOF)-TOF mass spectrometry (MS).
# In the ‘on-beads/off-beads’ (on-exchange on beads followed by off-exchange on beads) experiment, hPRLR was first bound to H1H6958N2 beads and then incubated for 5 min or 10 min in D2O for on-exchange. The following steps (off-exchange, pepsin digestion, and MS analysis) were carried out as described for the ‘on-solution/off-beads’ procedure. The centroid values or average mass-to-charge ratios (m/z) of all the detected peptides were calculated and compared between these two sets of experiments.
# The results are summarized in Table 29 which provides a comparison of the centroid m/z values for all the detected peptides identified by liquid chromatography and MS following the H/D exchange and peptic digest procedure described above. For purposes of the present Example, a positive difference (A) of at least 0.20 m/z in both experiments indicates amino acids protected by antibody binding. Segments meeting this criterion are indicated by bold text and an asterisk (*) in Table 29. [Note that, although this experiment was conducted with a truncated form of PRLR (i.e., hPRLR-mmH; SEQ ID NO: 406), residue numbering in the far left column of Table 29 has been adjusted to correspond to the amino acid sequence of the full-length PRLR protein represented by SEQ ID NO: 404.]
# [1] = hPRLR peptide residues 61-71 of SEQ ID NO: 404, Experiment I 5 min on-/2.5 min off-exchange
# [2] = hPRLR peptide residues 61-71 of SEQ ID NO: 404, Experiment II 10 min on-/5 min off-exchange
# [3] = hPRLR peptide residues 64-71 of SEQ ID NO: 404, Experiment I 5 min on-/2.5 min off-exchange
# [4] = hPRLR peptide residues 64-71 of SEQ ID NO: 404, Experiment II 10 min on-/5 min off-exchange
# [5] = hPRLR peptide residues 64-72 of SEQ ID NO: 404, Experiment I 5 min on-/2.5 min off-exchange
# [6] = hPRLR peptide residues 64-72 of SEQ ID NO: 404, Experiment II 10 min on-/5 min off-exchange
# [7] = hPRLR peptide residues 72-94* of SEQ ID NO: 404 (* = protected by antibody binding), Experiment I 5 min on-/2.5 min off-exchange
# [8] = hPRLR peptide residues 72-94* of SEQ ID NO: 404 (* = protected by antibody binding), Experiment II 10 min on-/5 min off-exchange
# [9] = hPRLR peptide residues 72-95* of SEQ ID NO: 404 (* = protected by antibody binding), Experiment I 5 min on-/2.5 min off-exchange
# [10] = hPRLR peptide residues 72-95* of SEQ ID NO: 404 (* = protected by antibody binding), Experiment II 10 min on-/5 min off-exchange
# [11] = hPRLR peptide residues 96-101* of SEQ ID NO: 404 (* = protected by antibody binding), Experiment I 5 min on-/2.5 min off-exchange
# [12] = hPRLR peptide residues 96-101* of SEQ ID NO: 404 (* = protected by antibody binding), Experiment II 10 min on-/5 min off-exchange
# [13] = hPRLR peptide residues 96-102* of SEQ ID NO: 404 (* = protected by antibody binding), Experiment I 5 min on-/2.5 min off-exchange
# [14] = hPRLR peptide residues 96-102* of SEQ ID NO: 404 (* = protected by antibody binding), Experiment II 10 min on-/5 min off-exchange
# [15] = hPRLR peptide residues 133-147 of SEQ ID NO: 404, Experiment I 5 min on-/2.5 min off-exchange
# [16] = hPRLR peptide residues 133-147 of SEQ ID NO: 404, Experiment II 10 min on-/5 min off-exchange
# [17] = hPRLR peptide residues 134-147 of SEQ ID NO: 404, Experiment I 5 min on-/2.5 min off-exchange
# [18] = hPRLR peptide residues 134-147 of SEQ ID NO: 404, Experiment II 10 min on-/5 min off-exchange
# [19] = hPRLR peptide residues 135-147 of SEQ ID NO: 404, Experiment I 5 min on-/2.5 min off-exchange
# [20] = hPRLR peptide residues 135-147 of SEQ ID NO: 404, Experiment II 10 min on-/5 min off-exchange
# [21] = hPRLR peptide residues 136-147 of SEQ ID NO: 404, Experiment I 5 min on-/2.5 min off-exchange
# [22] = hPRLR peptide residues 136-147 of SEQ ID NO: 404, Experiment II 10 min on-/5 min off-exchange
# [23] = hPRLR peptide residues 137-147 of SEQ ID NO: 404, Experiment I 5 min on-/2.5 min off-exchange
# [24] = hPRLR peptide residues 137-147 of SEQ ID NO: 404, Experiment II 10 min on-/5 min off-exchange
# [25] = hPRLR peptide residues 168-179 of SEQ ID NO: 404, Experiment I 5 min on-/2.5 min off-exchange
# [26] = hPRLR peptide residues 168-179 of SEQ ID NO: 404, Experiment II 10 min on-/5 min off-exchange
# [27] = hPRLR peptide residues 168-180 of SEQ ID NO: 404, Experiment I 5 min on-/2.5 min off-exchange
# T1 sequence (P16471 with tags, fused parts or gaps): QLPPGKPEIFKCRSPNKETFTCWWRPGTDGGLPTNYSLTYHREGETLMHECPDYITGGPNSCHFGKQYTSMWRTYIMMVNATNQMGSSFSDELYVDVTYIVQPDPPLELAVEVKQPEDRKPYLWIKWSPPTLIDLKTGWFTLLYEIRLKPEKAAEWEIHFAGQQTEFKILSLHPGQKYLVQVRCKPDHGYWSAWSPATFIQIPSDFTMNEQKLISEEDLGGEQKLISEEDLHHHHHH
molecule,measurement,setting,value
"H1H6958N2: anti-PRLR antibody, receptor blocking, human IgG1 Fc form of H2M6958N2 of Table 1; HCVR/LCVR SEQ ID NOs 290/298 (antibody, V domains shown) VH: QVQLVESGGGVVQPGRSLRLSCGASGFTFRNYGMQWVRQGPGKGLEWVTLISFDGNDKYYADSVKGRFTISRDNSKNTLFLQMNSLRTEDTAVYYCARGGDFDYWGQGTLVTVSS VL: DIQMTQSPSSLSASVGDRVTITCRASQDIRKDLGWYQQKPGKAPKRLIYAASSLHSGVPSRFSGSGSGTEFTLTISSLQPEDFATYYCLQHNSYPMYTFGQGTKLEIK",epitope of PRLR with which the antibody interacts,delta centroid greater than 0.20 m/z in both experiments,amino acids 72 to 102 of SEQ ID NO: 404
same,"centroid m/z, on-beads/off-beads",[1],1306.50 m/z
same,"centroid m/z, on-solution/off beads",[1],1306.39 m/z
same,Δ (centroid m/z difference),[1],−0.10 m/z
same,"centroid m/z, on-beads/off-beads",[2],1306.38 m/z
same,"centroid m/z, on-solution/off beads",[2],1306.34 m/z
same,Δ (centroid m/z difference),[2],−0.04 m/z
same,"centroid m/z, on-beads/off-beads",[3],1005.05 m/z
same,"centroid m/z, on-solution/off beads",[3],1005.13 m/z
same,Δ (centroid m/z difference),[3],0.07 m/z
same,"centroid m/z, on-beads/off-beads",[4],1005.18 m/z
same,"centroid m/z, on-solution/off beads",[4],1005.13 m/z
same,Δ (centroid m/z difference),[4],−0.05 m/z
same,"centroid m/z, on-beads/off-beads",[5],1136.15 m/z
same,"centroid m/z, on-solution/off beads",[5],1136.16 m/z
same,Δ (centroid m/z difference),[5],0.01 m/z
same,"centroid m/z, on-beads/off-beads",[6],1136.49 m/z
same,"centroid m/z, on-solution/off beads",[6],1136.33 m/z
same,Δ (centroid m/z difference),[6],−0.16 m/z
same,"centroid m/z, on-beads/off-beads",[7],2572.17 m/z
same,"centroid m/z, on-solution/off beads",[7],2573.91 m/z
same,Δ (centroid m/z difference),[7],1.74 m/z
same,"centroid m/z, on-beads/off-beads",[8],2572.12 m/z
same,"centroid m/z, on-solution/off beads",[8],2573.74 m/z
same,Δ (centroid m/z difference),[8],1.62 m/z
same,"centroid m/z, on-beads/off-beads",[9],2703.43 m/z
same,"centroid m/z, on-solution/off beads",[9],2705.49 m/z
same,Δ (centroid m/z difference),[9],2.06 m/z
same,"centroid m/z, on-beads/off-beads",[10],2703.70 m/z
same,"centroid m/z, on-solution/off beads",[10],2705.29 m/z
same,Δ (centroid m/z difference),[10],1.60 m/z
same,"centroid m/z, on-beads/off-beads",[11],870.20 m/z
same,"centroid m/z, on-solution/off beads",[11],870.70 m/z
same,"centroid m/z, on-beads/off-beads",[12],870.20 m/z
same,"centroid m/z, on-solution/off beads",[12],870.71 m/z
same,Δ (centroid m/z difference),[12],0.52 m/z
same,"centroid m/z, on-beads/off-beads",[13],1001.22 m/z
same,"centroid m/z, on-solution/off beads",[13],1001.59 m/z
same,Δ (centroid m/z difference),[13],0.37 m/z
same,"centroid m/z, on-beads/off-beads",[14],1001.14 m/z
same,"centroid m/z, on-solution/off beads",[14],1001.62 m/z
same,Δ (centroid m/z difference),[14],0.48 m/z
same,"centroid m/z, on-beads/off-beads",[15],1786.37 m/z
same,"centroid m/z, on-solution/off beads",[15],1786.59 m/z
same,Δ (centroid m/z difference),[15],0.22 m/z
same,"centroid m/z, on-beads/off-beads",[16],1786.52 m/z
same,"centroid m/z, on-solution/off beads",[16],1786.55 m/z
same,Δ (centroid m/z difference),[16],0.02 m/z
same,"centroid m/z, on-beads/off-beads",[17],1673.29 m/z
same,"centroid m/z, on-solution/off beads",[17],1673.36 m/z
same,Δ (centroid m/z difference),[17],0.07 m/z
same,"centroid m/z, on-beads/off-beads",[18],1673.39 m/z
same,"centroid m/z, on-solution/off beads",[18],1673.50 m/z
same,Δ (centroid m/z difference),[18],0.11 m/z
same,"centroid m/z, on-beads/off-beads",[19],1602.02 m/z
same,"centroid m/z, on-solution/off beads",[19],1602.15 m/z
same,Δ (centroid m/z difference),[19],0.13 m/z
same,"centroid m/z, on-beads/off-beads",[20],1602.04 m/z
same,"centroid m/z, on-solution/off beads",[20],1602.15 m/z
same,Δ (centroid m/z difference),[20],0.11 m/z
same,"centroid m/z, on-beads/off-beads",[21],1502.88 m/z
same,"centroid m/z, on-solution/off beads",[21],1502.85 m/z
same,Δ (centroid m/z difference),[21],−0.03 m/z
same,"centroid m/z, on-beads/off-beads",[22],1502.88 m/z
same,"centroid m/z, on-solution/off beads",[22],1502.79 m/z
same,Δ (centroid m/z difference),[22],−0.09 m/z
same,"centroid m/z, on-beads/off-beads",[23],1373.68 m/z
same,"centroid m/z, on-solution/off beads",[23],1373.78 m/z
same,Δ (centroid m/z difference),[23],0.09 m/z
same,"centroid m/z, on-beads/off-beads",[24],1373.84 m/z
same,"centroid m/z, on-solution/off beads",[24],1373.80 m/z
same,Δ (centroid m/z difference),[24],−0.04 m/z
same,"centroid m/z, on-beads/off-beads",[25],1447.71 m/z
same,"centroid m/z, on-solution/off beads",[25],1447.73 m/z
same,Δ (centroid m/z difference),[25],0.02 m/z
same,"centroid m/z, on-beads/off-beads",[26],1447.78 m/z
same,"centroid m/z, on-solution/off beads",[26],1447.76 m/z
same,Δ (centroid m/z difference),[26],−0.02 m/z
same,"centroid m/z, on-beads/off-beads",[27],1633.66 m/z
same,"centroid m/z, on-solution/off beads",[27],1633.59 m/z
